Patent publication US20220168347A1 (published 2022)

Biological target: T1, gp100 (gp100-intron4) peptide on HLA-A*24:02 (human)
T1 peptide: VYFFLPDHL
Experiment: multimer staining

B1: A*24:02/gp100-intron4 TCR (TCR, V domains shown)
Valpha: KQEVTQIPAALSVPEGENLVLNCSFTDSAIYNLQWFRQDPGKGLTSLLLIQSSQREQTSGRLNASLDKSSGRSTLYIAASQPGDSATYLCAVATDSWGKLQFGAGTQVVVTP
Vbeta: AAGVIQSPRHLIKEKRETATLKCYPIPRHDTVYWYQQGPGQDPQFLISFYEKMQSDKGSIPDRFSAQQFSDYHSELNMSSLELGDSALYFCASSLLPEGTGRVSGYTFGSGTRLTVV
- binding result: recognises
